Experiments:
[1] = system: NY-ESO 5B8 TCR transduced Jurkat cells; experiment: TMG-expressing BCL-6/BCL-xL B cells with or without CD40L, co-culture with TCR Jurkat cells, CD69 (Example 7); format: cell-based, human; conditions: BCL-6/BCL-xL immortalized B cells, two donors, 20 hours
Procedure: (§1) B cells from two healthy donors are isolated and immortalized by transduction with BCL-6/BCL-xL as described in Example 5 and 10 of this invention. In this Example, B cells are either transduced with BCL-6/BCL-xL alone or in combination with a CD40L transgene. After immortalization B cells are transduced with different TMG constructs encoding different numbers of 25mer polypeptides (1, 3, 12 or 40) and including LAMP1 signaling and transmembrane sequences. 96 hours post-transductions TMG-expressing B cells are enriched by antibiotic resistance selection as described in Examples 5 and 10. […]
(§2) TCR expressing Jurkat T cells specific for two NY-ESO-1 derived T cell epitopes (5B8 epitope SLLMWITQCFLPVF; SEQ ID NO: 3; MHC-class II restricted T cell epitope and 1G4 epitope SLLMWITQC; SEQ ID NO: 4; MHC-class I restricted T cell epitope) are generated as described in Examples 5 and 10. […] After co-culture, CD69 expression by TCR transduced Jurkat T cells is measured by flow cytometry.
(§3) FIG. 11A is Donor 1: NY-ESO 1G4 TCR transduced T cell reactivity towards TMG transduced BCL-6/BCL-XL immortalized B cells with or without CD40L. […] NY-ESO 1G4 TCR transduced Jurkat cells directed against one of the epitopes presented on Class I were then co-cultured with the B cells and reactivity was assessed by flowcytometry focusing on upregulation of CD69 on T cells. […]

[2] = system: NY-ESO 1G4 TCR transduced Jurkat cells; experiment: as above; format: cell-based, human; conditions: BCL-6/BCL-xL immortalized B cells, two donors, 20 hours
Procedure: as §1, §2, §3

B1: CD40L transgene: hCD40L transgene expressed in BCL-6/BCL-xL immortalized B cells (protein)
DNA: MIETYNQTSPRSAATGLPISMKIFMYLLTVFLITQMIGSALFAVYLHRRLDKIEDERNLHEDFVFMKTIQRCNTGERSLSLLNCEEIKSQFEGFVKDIMLNKEETKKENSFEMQKGDQNPQIAAHVISEASSKTTSVLQWAEKGYYTMSNNLVTLENGKQLTVKRQGLYYIYAQVTFCSNREASSQAPFIASLCLKSPGRFERILLRAANTHSSAKPCGQQSIHLGGVFELQPGASVFVNVTDPSQVSHGTGFTSFGLLKL
MHC-class II antigen presentation (CD69 expression by TCR transduced Jurkat T cells) [1]: can increase
MHC-class I antigen-presentation (CD69 expression by TCR transduced Jurkat T cells) [2]: can increase
